Ends that are not written are not given here.
Experiments:
[1] = target: T1, fibrinogen hole 'a' and hole 'b' (Homo sapiens, UniProt P02675+P02679); conditions: cited from earlier work
T1 sequence (P02679 27-433 limits assumed): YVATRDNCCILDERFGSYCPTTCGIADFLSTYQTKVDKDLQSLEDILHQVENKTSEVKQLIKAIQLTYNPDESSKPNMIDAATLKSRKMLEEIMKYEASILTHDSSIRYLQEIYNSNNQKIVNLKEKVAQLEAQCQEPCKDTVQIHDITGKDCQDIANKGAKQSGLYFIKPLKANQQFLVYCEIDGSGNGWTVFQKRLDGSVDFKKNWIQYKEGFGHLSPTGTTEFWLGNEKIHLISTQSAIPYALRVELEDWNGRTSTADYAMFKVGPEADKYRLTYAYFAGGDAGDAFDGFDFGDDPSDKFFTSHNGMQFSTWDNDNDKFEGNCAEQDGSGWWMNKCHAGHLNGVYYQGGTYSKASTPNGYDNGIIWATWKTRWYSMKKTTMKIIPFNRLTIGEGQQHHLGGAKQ
T1 sequence (P02675 31-491): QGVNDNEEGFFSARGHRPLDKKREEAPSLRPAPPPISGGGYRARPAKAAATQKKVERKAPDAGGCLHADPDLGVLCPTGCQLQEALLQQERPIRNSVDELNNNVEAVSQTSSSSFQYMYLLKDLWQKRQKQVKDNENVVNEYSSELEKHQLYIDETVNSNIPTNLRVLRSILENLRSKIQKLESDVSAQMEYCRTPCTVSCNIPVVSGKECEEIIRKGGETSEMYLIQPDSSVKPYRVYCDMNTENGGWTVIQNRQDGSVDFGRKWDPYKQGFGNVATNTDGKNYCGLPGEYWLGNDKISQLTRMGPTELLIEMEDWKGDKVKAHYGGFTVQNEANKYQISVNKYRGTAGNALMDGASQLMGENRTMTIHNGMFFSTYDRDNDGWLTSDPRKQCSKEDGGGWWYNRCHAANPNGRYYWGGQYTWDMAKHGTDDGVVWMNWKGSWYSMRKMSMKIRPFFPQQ
T1 sequence (P02671 20-629 partner limits assumed): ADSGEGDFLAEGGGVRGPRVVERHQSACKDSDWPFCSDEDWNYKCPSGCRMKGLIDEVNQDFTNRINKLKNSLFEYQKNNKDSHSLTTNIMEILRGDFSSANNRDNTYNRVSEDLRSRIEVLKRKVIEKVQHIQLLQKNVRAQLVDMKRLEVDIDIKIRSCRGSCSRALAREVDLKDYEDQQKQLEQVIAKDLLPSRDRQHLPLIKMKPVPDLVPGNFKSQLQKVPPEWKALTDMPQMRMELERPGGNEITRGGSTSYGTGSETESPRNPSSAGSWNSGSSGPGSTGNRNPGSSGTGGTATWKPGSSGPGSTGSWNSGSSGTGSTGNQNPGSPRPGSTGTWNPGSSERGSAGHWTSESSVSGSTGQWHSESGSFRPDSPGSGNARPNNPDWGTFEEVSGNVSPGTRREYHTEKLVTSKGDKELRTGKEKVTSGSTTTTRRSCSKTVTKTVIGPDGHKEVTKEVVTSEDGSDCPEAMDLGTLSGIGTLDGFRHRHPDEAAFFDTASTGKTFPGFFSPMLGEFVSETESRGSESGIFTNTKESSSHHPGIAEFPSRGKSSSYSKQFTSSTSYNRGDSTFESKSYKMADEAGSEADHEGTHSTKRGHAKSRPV

[2] = target: T2, purified human fibrinogen (Homo sapiens, UniProt P02675+P02679); assay: Polymerisation (clotting) of purified fibrinogen, Sigma Amelung KC4 Delta coagulation analyser; format: biochemical; conditions: conjugate 2 mg/ml, dendrimer 0.025-0.5 mg/ml
T2 sequence (P02679 27-433 limits assumed): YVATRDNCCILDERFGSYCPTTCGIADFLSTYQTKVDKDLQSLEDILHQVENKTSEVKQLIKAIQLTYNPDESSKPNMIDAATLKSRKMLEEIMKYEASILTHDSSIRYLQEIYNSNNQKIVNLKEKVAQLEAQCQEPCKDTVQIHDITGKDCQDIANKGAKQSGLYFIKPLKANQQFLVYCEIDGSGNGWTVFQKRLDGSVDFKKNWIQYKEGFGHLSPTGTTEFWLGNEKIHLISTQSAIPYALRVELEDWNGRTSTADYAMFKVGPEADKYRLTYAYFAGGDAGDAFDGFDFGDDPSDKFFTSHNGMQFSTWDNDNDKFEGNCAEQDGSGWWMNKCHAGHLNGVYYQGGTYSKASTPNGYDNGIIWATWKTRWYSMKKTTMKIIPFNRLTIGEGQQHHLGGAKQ
T2 sequence (P02675 31-491): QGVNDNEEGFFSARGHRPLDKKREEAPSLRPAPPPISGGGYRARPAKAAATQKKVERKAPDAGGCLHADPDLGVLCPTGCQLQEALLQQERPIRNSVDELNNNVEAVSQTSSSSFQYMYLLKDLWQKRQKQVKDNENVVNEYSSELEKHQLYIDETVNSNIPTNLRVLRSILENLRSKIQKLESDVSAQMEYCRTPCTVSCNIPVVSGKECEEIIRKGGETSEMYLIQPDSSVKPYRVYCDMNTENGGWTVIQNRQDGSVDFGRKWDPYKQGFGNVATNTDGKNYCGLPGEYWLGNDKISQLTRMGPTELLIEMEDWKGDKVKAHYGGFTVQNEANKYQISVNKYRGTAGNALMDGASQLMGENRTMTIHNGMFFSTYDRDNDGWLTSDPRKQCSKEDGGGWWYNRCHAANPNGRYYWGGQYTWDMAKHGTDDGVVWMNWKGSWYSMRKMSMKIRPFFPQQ
T2 sequence (P02671 20-629 partner limits assumed): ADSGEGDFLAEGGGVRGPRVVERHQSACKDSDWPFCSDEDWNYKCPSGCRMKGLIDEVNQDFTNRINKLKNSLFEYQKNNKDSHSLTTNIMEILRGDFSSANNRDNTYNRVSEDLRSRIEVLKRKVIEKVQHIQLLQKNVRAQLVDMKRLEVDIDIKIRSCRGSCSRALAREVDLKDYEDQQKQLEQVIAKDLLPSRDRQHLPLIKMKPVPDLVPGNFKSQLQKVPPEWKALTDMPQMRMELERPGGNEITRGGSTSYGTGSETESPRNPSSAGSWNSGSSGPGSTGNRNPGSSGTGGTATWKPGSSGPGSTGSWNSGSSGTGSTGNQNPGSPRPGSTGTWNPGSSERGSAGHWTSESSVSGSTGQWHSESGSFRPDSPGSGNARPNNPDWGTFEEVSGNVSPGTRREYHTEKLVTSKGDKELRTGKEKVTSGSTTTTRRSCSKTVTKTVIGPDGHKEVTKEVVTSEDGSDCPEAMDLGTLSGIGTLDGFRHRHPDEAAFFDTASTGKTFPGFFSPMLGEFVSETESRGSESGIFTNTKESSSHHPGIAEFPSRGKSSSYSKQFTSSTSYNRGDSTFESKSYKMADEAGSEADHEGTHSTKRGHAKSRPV
Method: The ability of Peptide Dendrimer No. 12 to polymerise fibrinogen was assessed. 30 μl of dendrimer in solution, at concentration ranging from 0.005-2 mg/ml, was added to 100 μl purified human fibrinogen at 3 mg/ml (the level of fibrinogen found in the blood). Polymerisation of fibrinogen was analysed using a Sigma Amelung KC4 Delta coagulation analyser.
The concentration of each dendrimer was varied from 0.005-0.5 mg/ml.

Substance: GPRPG (listed as Homo sapiens)
- binding preference for hole 'a' / hole 'b' of fibrinogen [1]: binds to hole ‘a’ and hole ‘b’ of fibrinogen, but with some preference for hole ‘a’

Substance: Peptide Conjugate No. 1 (peptide 1 GPRP; peptide 2 GPRP; also: peptide conjugate of two chains, linkage not given here)
- activity of mixtures of peptide conjugate (2 mg/ml) with Peptide Dendrimer No. 3 or 4 in copolymerising with fibrinogen [2]: not active
